Test results from US20240216513A1, “FATTY ACID-BIFUNCTIONAL DEGRADER CONJUGATES AND THEIR METHODS OF USE” (Novartis AG, priority 2021, published 2024).

Columns and labels:
[1] = BTK FAC plasma stability assay, cyno plasma; type: in vitro ADME, cynomolgus monkey
[2] = BTK FAC plasma stability assay, rat plasma; type: in vitro ADME; conditions: for Plasma stability (h) rat: incubation to 24 h
Method: (§1) Plasma stability was conducted in Dulbecco's PBS buffer, mouse plasma, rat plasma or human plasma frozen with K3-EDTA from BiolVT). Thawed plasma was centrifuged prior to warming for 5 minutes at 37° C. Working solutions were prepared from 10 mM DMSO solution to 500 µM in acetonitrile:water (1:1); 2 µL of working solution was added to 198 µL blank plasma or PBS and mixed manually. 4×45 µL of spiked matrix was aliquoted into glass incubation plates (96-well DW glass microplate) and sealed with blue silicon/PTFE seal; then incubated on a Thermo shaker (38° C. 300 RPM). Samples were prepared at 0, 2, 6 and 24 h timepoints, by protein precipitation with chilled acetonitrile containing internal standard Glyburide (0.2 µM). Precipitated samples were shaken for 10 minutes and stored at 4° C. until completion of the study. Following precipitation of the terminal sample, samples were frozen at −80° C. for 1 hour. Samples were then thawed prior to centrifugation (20 minutes, 4500 RPM at 4° C.). 50 µL of supernatant of each sample was transferred to 384 well analysis plate containing 30 µL of water. Semi quantitative analysis (analyte: internal standard peak area ratio) was performed by LC-MS/MS using a Sciex QTrap 5500.

[3] = BTK FAC plasma stability assay, mouse plasma; type: in vitro ADME; conditions: for Plasma stability (h) mouse: incubation to 24 h
Method: as §1

[4] = BTK FAC plasma stability assay, dog plasma; type: in vitro ADME
[5] = BTK FAC plasma stability assay, PBS buffer arm; type: physicochemical; conditions: for Plasma stability (h) PBS: incubation to 24 h
Method: as §1

| SMILES | Plasma stability (h) cyno [1] | % Release of degrader after 24 h cyno [1] | % Release of degrader after 24 h rat [2] | Plasma stability (h) rat [2] | % Release of degrader after 24 h mouse [3] | Plasma stability (h) mouse [3] | Plasma stability (h) dog [4] | % Release of degrader after 24 h dog [4] | % Release of degrader after 24 h PBS [5] | Plasma stability (h) PBS [5] |
| --- | --- | --- | --- | --- | --- | --- | --- | --- | --- | --- |
| CCCCCCCCCCCN(C(=O)CCCCCCCCCC(=O)O)C(CCC(=O)NCCOCCOCCOCCOCCOCCOCCOCCOCCOCCOCCOCCOCCC(=O)NCc1ccc(C(=O)OC(C)(C)c2ccc(C(=O)Nc3cc(F)cc(-c4ncnc5[nH]c(-c6ccc(CCN7CCC8(CC7)CCN(C(=O)c7ccc(OC)c(N9CCC(=O)NC9=O)c7)CC8)cc6)cc45)c3C)c(F)c2)cn1)C(=O)O (centres unmarked) [Example A25, 46-Carboxy-1-(5-(((2-(4-((3-(6-(4-(2-(9-(3-(2,4-dioxotetrahydropyrimidin-1(2H)-yl)-4-methoxybenzoyl)-3,9-diazaspiro[5.5]undecan-3-yl)ethyl)phenyl)-7H-pyrrolo[2,3-d]pyrimidin-4-yl)-5-fluoro-2-methylphenyl)carbamoyl)-3-fluorophenyl)propan-2-yl)oxy)carbonyl)pyridin-2-yl)-3,43,48-trioxo-47-undecyl-6,9,12,15,18,21,24,27,30,33,36,39-dodecaoxa-2,42,47-triazaoctapentacontan-58-oic acid] | >48 h | 1.1% | 1.5% | 35.7 h | 20.9% | 17.8 h | >48 h | 1.1% | 2.2% | >48 h |
| CCCCCCCCCCCN(C(=O)CCCCCCCCCC(=O)O)C(CCC(=O)NCCOCCOCCOCCOCCOCCOCCOCCOCCOCCOCCOCCOCCC(=O)NCCC(=O)OC(C)(C)c1ccc(C(=O)Nc2cc(F)cc(-c3ncnc4[nH]c(-c5ccc(CCN6CCC7(CC6)CCN(C(=O)c6ccc(OC)c(N8CCC(=O)NC8=O)c6)CC7)cc5)cc34)c2C)c(F)c1)C(=O)O (centres unmarked) [Example A12, 51-Carboxy-2-(4-((3-(6-(4-(2-(9-(3-(2,4-dioxotetrahydropyrimidin-1(2H)-yl)-4-methoxybenzoyl)-3,9-diazaspiro[5.5]undecan-3-yl)ethyl)phenyl)-7H-pyrrolo[2,3-d]pyrimidin-4-yl)-5-fluoro-2-methylphenyl)carbamoyl)-3-fluorophenyl)-2-methyl-4,8,48,53-tetraoxo-52-undecyl-3,11,14,17,20,23,26,29,32,35,38,41,44-tridecaoxa-7,47,52-triazatrihexacontan-63-oic acid] | 44.9 h | 0.5% | 2% | >49 h | 14.2% | 27.3 h | >48 h | 1.2% | 0.3% | >48 h |
| CCCCCCCCCCCN(C(=O)CCCCCCCCCC(=O)O)C(CCC(=O)NCCOCCOCCOCCOCCOCCOCCOCCOCCOCCOCCOCCOCCOCCOCCOCCOCCC(=O)NCC(=O)OC(C)(C)c1ccc(C(=O)Nc2cc(F)cc(-c3ncnc4[nH]c(-c5ccc(CCN6CCC7(CC6)CCN(C(=O)c6ccc(OC)c(N8CCC(=O)NC8=O)c6)CC7)cc5)cc34)c2C)c(F)c1)C(=O)O (centres unmarked) [Example A9, 62-Carboxy-2-(4-((3-(6-(4-(2-(9-(3-(2,4-dioxotetrahydropyrimidin-(2H)-yl)-4-methoxybenzoyl)-3,9-diazaspiro[5.5]undecan-3-yl)ethyl)phenyl)-7H-pyrrolo[2,3-d]pyrimidin-4-yl)-5-fluoro-2-methylphenyl)carbamoyl)-3-fluorophenyl)-2-methyl-4,7,59,64-tetraoxo-63-undecyl-3,10,13,16,19,22,25,28,31,34,37,40,43,46,49,52,55-heptadecaoxa-6,58,63-triazatetraheptacontan-74-oic acid] | 30.8 h | 3.7% | 22.4% | 6.8 h | 15.6% | 4.6 h | >48 h | 5.7% | 1.2% | >48 h |
| CCCCCCCCCCCN(C(=O)CCCCCCCCCC(=O)O)C(CCC(=O)NCCOCCOCCOCCOCCOCCOCCOCCOCCOCCOCCOCCOCCC(=O)NCc1ccc(C(=O)OC(C)(C)c2ccc(C(=O)Nc3cc(F)cc(-c4ncnc5[nH]c(-c6ccc(CCN7CCC8(CC7)CCN(C(=O)c7ccc(OC)c(N9CCC(=O)NC9=O)c7)CC8)cc6)cc45)c3C)c(F)c2)cc1)C(=O)O (centres unmarked) [Example A14, 46-Carboxy-1-(4-(((2-(4-((3-(6-(4-(2-(9-(3-(2,4-dioxotetrahydropyrimidin-1(2H)-yl)-4-methoxybenzoyl)-3,9-diazaspiro[5.5]undecan-3-yl)ethyl)phenyl)-7H-pyrrolo[2,3-d]pyrimidin-4-yl)-5-fluoro-2-methylphenyl)carbamoyl)-3-fluorophenyl)propan-2-yl)oxy)carbonyl)phenyl)-3,43,48-trioxo-47-undecyl-6,9,12,15,18,21,24,27,30,33,36,39-dodecaoxa-2,42,47-triazaoctapentacontan-58-oic acid] | >48 h | 0.2% | 0.3% | >48 h | 9.5% | >48 h | >48 h | 0.1% | 0.2% | >48 h |
| CCCCCCCCCCCN(C(=O)CCCCCCCCCC(=O)O)C(CCC(=O)NCCOCCOCCOCCOCCOCCOCCOCCOCCOCCOCCOCCOCCC(=O)N1CCN(CC(=O)OC(C)(C)c2ccc(C(=O)Nc3cc(F)cc(-c4ncnc5[nH]c(-c6ccc(CCN7CCC8(CC7)CCN(C(=O)c7ccc(OC)c(N9CCC(=O)NC9=O)c7)CC8)cc6)cc45)c3C)c(F)c2)CC1)C(=O)O (centres unmarked) [Example A22, 44-Carboxy-1-(4-(2-((2-(4-((3-(6-(4-(2-(9-(3-(2,4-dioxotetrahydropyrimidin-1(2H)-yl)-4-methoxybenzoyl)-3,9-diazaspiro[5.5]undecan-3-yl)ethyl)phenyl)-7H-pyrrolo[2,3-d]pyrimidin-4-yl)-5-fluoro-2-methylphenyl)carbamoyl)-3-fluorophenyl)propan-2-yl)oxy)-2-oxoethyl)piperazin-1-yl)-1,41,46-trioxo-45-undecyl-4,7,10,13,16,19,22,25,28,31,34,37-dodecaoxa-40,45-diazahexapentacontan-56-oic acid] | >48 h | 1.2% | 1.4% | >48 h | 2.3% | >48 h | >48 h | 1.6% | 1.3% | >48 h |
| CCCCCCCCCCCN(C(=O)CCCCCCCCCC(=O)O)[C@@H](CCC(=O)NCCOCCOCCOCCOCCOCCOCCOCCOCCOCCOCCOCCOCCC(=O)NCCCC(=O)OC(C)(C)c1ccc(C(=O)Nc2cc(F)cc(-c3ncnc4[nH]c(-c5ccc(CCN6CCC7(CC6)CCN(C(=O)c6ccc(OC)c(N8CCC(=O)NC8=O)c6)CC7)cc5)cc34)c2C)c(F)c1)C(=O)O [Example A27, (S)-52-Carboxy-2-(4-((3-(6-(4-(2-(9-(3-(2,4-dioxotetrahydropyrimidin-1(2H)-yl)-4-methoxybenzoyl)-3,9-diazaspiro[5.5]undecan-3-yl)ethyl)phenyl)-7H-pyrrolo[2,3-d]pyrimidin-4-yl)-5-fluoro-2-methylphenyl)carbamoyl)-3-fluorophenyl)-2-methyl-4,9,49,54-tetraoxo-53-undecyl-3,12,15,18,21,24,27,30,33,36,39,42,45-tridecaoxa-8,48,53-triazatetrahexacontan-64-oic acid] | 26.6 h | 0.4% | 2% | – | 13.7% | 28.6 h | >48 h | 0.5% | 0.3% | >48 h |
